Assay results as given in the RNAGym collection of RNA variant scans (doi:10.1093/molbev/msab373).

B1: Azoarcus group I ribozyme (parent)
chain: GUGCCUUGCGCCGGGAAACCACGCAAGGGAUGGUGUCAAAUUCGGCGAAACCUAAGCGCCCGCCCGGGCGUAUGGCAACGCCGAGCCAAGCUUCGGCGCCUGCGCCGAUGAAGGUGUAGAGACUAGACGGCACCCACCUAAGGCAAACGCUAUGGUGAAGGCAUAGUCCAGGGAGUGGCGAAAGUCACACAAACCGG

Variants of: B1
Assay: reverse-splicing fitness (ratio to wild type); higher = more active; in vitro selection; Mg2+ level not given
In short: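 An in vitro group I ribozyme library with randomized positions was T7-transcribed and gel-purified. In triplicate, 10 pmol RNA in EPPS pH 7.5 was reacted with 50 pmoles of a 30-nt RNA substrate for 1 h at 37 °C across several added MgCl2 levels (1–48 mM), then stopped with EDTA. Products were reverse transcribed from a substrate-complementary primer, PCR-amplified and sequenced (HiSeq 4000). Fitness is a variant's read proportion after selection over that before, normalised to wild type.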

Row | Variant | reverse-splicing fitness
1 | C82G A111G A120U C150U C169A U176C | 0.00376
2 | C82G A111G A120U C150U C169A U176A | 0.00519
3 | C82G A111G A120U C150U C169A U176G | 0.00204
4 | C82G A111G A145C C150A C169U U176C | 0.00961
5 | C82G A111G A145C C150A C169U U176G | 0.00582
6 | C82G A111G A145C C150A C169U U176A | 0.0123
7 | C82G A111G A145U C150A C169A | 0.00827
8 | C82G A111G A145U C150A C169U | 0.00982
9 | C82G A111G A145U C150A C169G | 0.00845
10 | C82G A111G A120U A145G C150U U176C | 0.0196
11 | C82G A111G A120U A145G C150U U176G | 0.00429
12 | C82G A111G A120U A145G C150U U176A | 0.0125
13 | C82G A111G A120U A145U C169U U176G | 0.00199
14 | C82G A111G A120U A145U C169U U176C | 0.0031
15 | C82G A111G A120U A145U C169U U176A | 0.00226
16 | C82G A111G A145U C150G | 0.0338
17 | C82G A111G A145U C150U | 0.261
18 | C82G A111G A145U C150A | 0.0314
19 | C82G A111G A145C C150G U176G | 0.00683
20 | C82G A111G A145C C150G U176A | 0.0197
21 | C82G A111G A145C C150G U176C | 0.0294

Row | Variant | reverse-splicing fitness
22 | C82G A111G A120U A145U C150U C169U U176C | 0.00263
23 | C82G A111G A120U A145U C150U C169U U176A | 0.00291
24 | C82G A111G A120U A145U C150U C169U U176G | 0.00196
25 | C82G A111G A145G C150G C169A U176G | 0.0094
26 | C82G A111G A145G C150G C169A U176A | 0.015
27 | C82G A111G A145G C150G C169A U176C | 0.0146
28 | C82G A111G A120U C150U C169G U176C | 0.00412
29 | C82G A111G A120U C150U C169G U176A | 0.00758
30 | C82G A111G A120U C150U C169G U176G | 0.0024
31 | C82G A111G A120U C150A C169G U176G | 0.00187
32 | C82G A111G A120U C150A C169G U176C | 0.00399
33 | C82G A111G A120U C150A C169G U176A | 0.00749
34 | C82G A111G A145U C150U C169G U176A | 0.0142
35 | C82G A111G A145U C150U C169G U176G | 0.00611
36 | C82G A111G A145U C150U C169G U176C | 0.0152
37 | C82G A111G A120U A145U C150U C169A U176G | 0.00186
38 | C82G A111G A120U A145U C150U C169A U176C | 0.00239
39 | C82G A111G A120U A145U C150U C169A U176A | 0.00294
40 | C82G A111G A120U A145U C150G C169U U176C | 0.00309
41 | C82G A111G A120U A145U C150G C169U U176A | 0.00283
42 | C82G A111G A120U A145U C150G C169U U176G | 0.00239

Row | Variant | reverse-splicing fitness
43 | C82G A111G A120U A145U C150U | 0.04
44 | C82G A111G A120U A145U C150A | 0.00764
45 | C82G A111G A120U A145U C150G | 0.00894
46 | C82G A111G A145C C169G U176G | 0.00501
47 | C82G A111G A145C C169G U176C | 0.0131
48 | C82G A111G A145C C169G U176A | 0.022
49 | C82G A111G A145C C150A | 0.0192
50 | C82G A111G A145C C150U | 0.0841
51 | C82G A111G A145C C150G | 0.0378
52 | C82G A111G A145U C150A C169U U176A | 0.0141
53 | C82G A111G A145U C150A C169U U176G | 0.00554
54 | C82G A111G A145U C150A C169U U176C | 0.0148
55 | C82G A111G A145U C150U C169A U176G | 0.00584
56 | C82G A111G A145U C150U C169A U176C | 0.0132
57 | C82G A111G A145U C150U C169A U176A | 0.015
58 | C82G A111G A120U A145U C150A C169A U176A | 0.00256
59 | C82G A111G A120U A145U C150A C169A U176G | 0.00211
60 | C82G A111G A120U A145U C150A C169A U176C | 0.00223
61 | C82G A111G A120U C150G | 0.00849
62 | C82G A111G A120U C150A | 0.00949
63 | C82G A111G A120U C150U | 0.0348

Row | Variant | reverse-splicing fitness
64 | C82G A111G A120U A145G C169G | 0.00538
65 | C82G A111G A120U A145G C169U | 0.00538
66 | C82G A111G A120U A145G C169A | 0.00466
67 | C82G A111G A120U C150U C169G | 0.00538
68 | C82G A111G A120U C150U C169A | 0.00504
69 | C82G A111G A120U C150U C169U | 0.00493
70 | C82G A111G A120U A145U C150G U176C | 0.00556
71 | C82G A111G A120U A145U C150G U176A | 0.00457
72 | C82G A111G A120U A145U C150G U176G | 0.00264
73 | C82G A111G A120U A145U C150G C169A U176A | 0.00415
74 | C82G A111G A120U A145U C150G C169A U176C | 0.00298
75 | C82G A111G A120U A145U C150G C169A U176G | 0.00219
76 | C82G A111G A120U U176A | 0.018
77 | C82G A111G A120U U176C | 0.0294
78 | C82G A111G A120U U176G | 0.00562
79 | C82G A111G A145G C150U U176A | 0.174
80 | C82G A111G A145G C150U U176G | 0.068
81 | C82G A111G A145G C150U U176C | 0.213
82 | C82G A111G A145G C150A | 0.0499
83 | C82G A111G A145G C150G | 0.0374
